Data as given in US20080154022A1.

Biological target: bFGF receptor on BHK-21 (baby hamster kidney derived) cells (hamster)
Assay: displacement of [^125I]-bFGF from BHK-21 cells, radioreceptor assay, IC50 read from the graph

Row | IC50 | Substance
1 | 120 pM | Recombinant human basic fibroblast growth factor (bFGF) (from UniProt P09038 143-288) (ligand)
2 | 400 pM | Biotinylated bFGF (monobiotinylated recombinant human bFGF) (from UniProt P09038 143-288) (ligand)
3 | 560 pM | Complex of bio-bFGF and the OX26/streptavidin conjugate (from UniProt P09038 143-288; P22629 37-163)
